We go through 1 molecule from publication PMC12703665, “A Trifunctional, Rare-Earth Theranostic Chelator Platform to Enable Diagnostic Nuclear Imaging, Surgical Resection, and Radiotherapy” (Journal of the American Chemical Society, 2025).

The series in a line: LogD7.4 lipophilicity measurements (1-octanol/DPBS). In kind it is physicochemical. As to conditions: 86Y-labeled tracer, 1-octanol/DPBS pH 7.4. As for the experimental part:
Figure S49. Chromatographic analysis of [177Lu]Lu-PSMA-617 and its corresponding non-radioactive reference complex. Absorbance of non-radioactive samples was monitored at 254 nm.
[161Tb]TbCl3 (9.34 µL, 4.0 mCi) and PSMA-617 (12.2 µL, 9.80 µM) were dissolved in a mixture of NaOAc buffer (20.0 µL, 1 M, pH 5.5), DMSO (20.0 µL) and water (38.4 µL). The resulting mixture was vortexed and heated at 80 °C for 20 minutes. Quantitative labeling was confirmed via radio-HPLC (Method D, Rt = 7.73 min – Absorbance monitored at 254 nm).
Figure S50. Chromatographic analysis of [161Tb]Tb-PSMA-617 and its corresponding non-radioactive […]
4.3 LogD7.4 Lipophilicity Measurements pepa-pic2, mepa-pic2, pepa2-pic and pepa2-pic-PSMA were radiolabeled with [86Y]YCl3 and formulated in DPBS 1X pH 7.4 at a concentration of 25-29 µCi/mL. […] Samples were centrifuged for 5 min at 5000 rpm to separate (also on this page, place not known: 02468101214161820 Time (min) Normalized Absorbance (a.u) Normalized Counts (cps) 02468101214161820 Time (min) Normalized Absorbance (a.u) Normalized Counts (cps)) […]
both layers. […] LogD7.4 values calculated according […]
Female BALB/c mice were purchased from Jackson Laboratory. Biodistribution profiles of Y-86 labeled mepa-pic2, pepa-pic2 and […] were first evaluated in healthy naïve mice. […]
Table S1. […] Values expressed as % ID/g. Error expressed as ± 1 SD for n = 4. […]

Turning to `COCCOCCOCCOc1ccc(C#Cc2cc(CN3CCN(Cc4cccc(C(=O)O)n4)CCN(Cc4cc(SC[C@H](N)C(=O)NCCCCCC(=O)NCCCC[C@H](NC(=O)N[C@@H](CCC(=O)O)C(=O)O)C(=O)O)cc(C(=O)O)n4)CC3)nc(C(=O)O)c2)cc1` [[86Y]Y-pepa-pic2-C-Hex-KuE, metal not drawn], the logD7.4 is reported as −2.98.
